Test results published in doi:10.1101/2021.08.17.456605.

Tests used:
[1] = biological target: Odinarchaeota LCB_4 Vps23(TSG101) (Odinarchaeota archaeon LCB_4); test: SEC-MALS
[2] = biological target: Heimdallarchaeota AB125 Vps22 (HeimAB125_14050) (Heimdallarchaeota AB125); test: SEC-MALS
[3] = biological target: Heimdallarchaeota AB125 Vps22 (HeimAB125_14050) (Heimdallarchaeota AB125); test: cross-linking

Odinarchaeota LCB_4 Vps23(TSG101) (natural protein)
stoichiometry N [1]: 2

Odinarchaeota LCB_4 Vps28 (natural protein)
stoichiometry N (Vps28 per Vps23 dimer) [1]: 1

Heimdallarchaeota AB125 Vps22 (HeimAB125_14050) (natural protein)
stoichiometry N [2]: 2
stoichiometry N [3]: 2
